{"source": "paper doi:10.1101/2025.08.26.672026", "about": "(bioRxiv, 2025)", "proteins": {"B1": {"name": "RPS2^ΔN26 (domain or fragment, Arabidopsis thaliana, UniProt Q42484 27-909, looked up)", "chain": "HKTDLRQAITDLETAIGDLKAIRDDLTLRIQQDGLEGRSCSNRAREWLSAVQVTETKTALLLVRFRRREQRTRMRRRYLSCFGCADYKLCKKVSAILKSIGELRERSEAIKTDGGSIQVTCREIPIKSVVGNTTMMEQVLEFLSEEEERGIIGVYGPGGVGKTTLMQSINNELITKGHQYDVLIWVQMSREFGECTIQQAVGARLGLSWDEKETGENRALKIYRALRQKRFLLLLDDVWEEIDLEKTGVPRPDRENKCKVMFTTRSIALCNNMGAEYKLRVEFLEKKHAWELFCSKVWRKDLLESSSIRRLAEIIVSKCGGLPLALITLGGAMAHRETEEEWIHASEVLTRFPAEMKGMNYVFALLKFSYDNLESDLLRSCFLYCALFPEEHSIEIEQLVEYWVGEGFLTSSHGVNTIYKGYFLIGDLKAACLLETGDEKTQVKMHNVVRSFALWMASEQGTYKELILVEPSMGHTEAPKAENWRQALVISLLDNRIQTLPEKLICPKLTTLMLQQNSSLKKIPTGFFMHMPVLRVLDLSFTSITEIPLSIKYLVELYHLSMSGTKISVLPQELGNLRKLKHLDLQRTQFLQTIPRDAICWLSKLEVLNLYYSYAGWELQSFGEDEAEELGFADLEYLENLTTLGITVLSLETLKTLFEFGALHKHIQHLHVEECNELLYFNLPSLTNHGRNLRRLSIKSCHDLEYLVTPADFENDWLPSLEVLTLHSLHNLTRVWGNSVSQDCLRNIRCINISHCNKLKNVSWVQKLPKLEVIELFDCREIEELISEHESPSVEDPTLFPSLKTLRTRDLPELNSILPSRFSFQKVETLVITNCPRVKKLPFQERRTQMNLPTVYCEEKWWKALEKDQPNEELCYLPRFVPN"}}, "target": "the molecule itself", "assay": "negative stain EM"}
{"protein": "B1", "values": [{"measurement": "stoichiometry N", "result": 8}]}
